These results are taken from patent US20150079111A1, “MECHANISM, DIAGNOSTIC, AND TREATMENTS FOR COMPLICATIONS OF RENAL FAILURE” (priority 2012, published 2015).

Experiment [1] has as its system renin-angiotensin-aldosterone (RAS) proteins AGT, ACE, AT1. Nature of the experiment: RAS protein levels (AGT, ACE, AT1) in PTCs by Western blot. The following applies: PTCs treated, then exposed to 100 μg/ml of AOPPs (sample set D). The class given is cell-based, human. As to the method: (§1) Human Tubular Epithelial Cells (HUTEC) cells were cultured in DMEF/F-12 medium containing 10% fetal calf serum, penicillin (200 U/ml) and streptomycin (200 ug/ml) until confluence, and then left serum-free overnight.
In sample set D, the PTCs were treated with either copper-zinc superoxide dismutase (an […], c-SOD), one of two inhibitors of NADPH oxidase (either diphenyleneiodonium (DPI) or apocynin), a pan-PKC inhibitor (Go6983), or PKCα inhibitor (Go6976). The PTCs were then exposed to 100 μg/ml of AOPPs. The protein levels of downstream renin-angiotensin-aldosterone (RAS) proteins were measured relative to β-actin. The expression of […], ACE, and AT1 was examined by Western blot.

The conditions of experiment [2]: patients with type-2 diabetes; cited from earlier work.
The test system of experiment [3] is p47phox, a subunit of NADPH oxidase. Nature of the experiment: Phosphorylation of p47phox in AOPP-exposed proximal tubule cells (immunoprecipitation / co-immunoprecipitation). The class given is cell-based, human. The note with it: PTCs incubated with inhibitor before AOPP exposure (sample set B). As to the method:
as §1
In sample set B, PTCs were incubated with either a pan-PKC inhibitor (Gö6983) or PKCα inhibitor (Gö6976) before AOPP exposure. Phosphorylation of p47phox was assayed by immunoprecipitation.
In sample set F, the level of phosphorylated p47phox in PTC cells was analyzed by co-immunoprecipitation.

The test system of experiment [4] is proximal tubule cells (PTCs). Nature of the experiment: Intracellular ROS production in proximal tubule cells, fluorometric analysis. The following applies: PTCs pre-incubated or transfected, then exposed to AOPPs (sample set C). The class given is cell-based, human. As for the experimental part: as §1
In sample set C, the PTC cells were pre-incubated with either a pan-PKC inhibitor (Gö6983), PKCα inhibitor (Gö6976), anti-RAGE antibody (a-RAGE), transfected with a CD36 siRNA (si-CD36), or both anti-RAGE antibody and transfected with CD36 siRNA (si-CD36+a-RAGE). The PTC cells were then exposed to AOPPs. Intracellular ROS production was determined by a fluorometric analysis.

The test system of experiment [5] is human microvascular endothelial cell (HMVECad). Put plainly: Intracellular ROS production in HMVECad cells, fluorometric analysis. The class given is cell-based. The note with it: for intracellular ROS: HMVECads exposed to modified RSA versus control unmodified RSA; for intracellular ROS production: HMVECads, 100 μg/ml for 15, 30, 60 or 120 minutes, effect of exposure time. From the text: (§2) Interfering with human microvascular endothelial cell (HMVECad) SCARB1 expression or blocking the receptor using an antibody ameliorates the effect of MDA-protein or pentosidine-protein on intracellular ROS production. Cryopreserved HMVECads were purchased from Life Technologies and cultured according to the company's instructions in Medium 131 with attachment factor (M-131-500) and addition of Microvascular Growth Supplement until confluence, and then left serum-free overnight.
First, HMVECads were treated with 100 μg/ml of one of three solutions. The first solution (MDA-protein) was rat serum albumin (RSA) treated with an equimolar 1 mmol/L solution of malondialdehyde (MDA) and acetaldehyde for 3 days at 37° C. The second solution was pentosidine-RSA, prepared by incubating 0.5 mg of normal RSA with 0.1 M D-glucose in 0.5 ml of 0.1 M sodium phosphate at 37° C. for 14 days. The third solution (the control) was untreated RSA from the same batch. The HMVECads were treated for 15, 30, 60, or 120 minutes. Following the indicated time, intracellular ROS production was determined by a fluorometric analysis.
(§3) Next, the cells were pre-incubated with a polyclonal anti-SCARB1 antibody (a-SRB) or a polyclonal anti-CD36 antibody (a-CD36) or transfected with either SCARB1 siRNA (si-SRB) or CD36 siRNA (siCD36) before exposure to MDA-RSA or Pent-RSA as above. The pre-incubations were performed in various combinations. The labels beneath each set of bars indicate which pre-incubation and which exposure was made to that set. The bars labelled “NC-siRNA” were pre-incubated with scramble siRNA and exposed to untreated RSA. The dark bars are read using the left y-axis, and the white bars are read using the right y-axis.
(§4) The intracellular ROS was a proxy for NADPH oxidase activation and mitochondrial leakage, both of which are linked to cellular stress and induction of apoptosis. The phospho-PKCα measured membrane-associated PKC signalling induced by oxidation and linked to activation of NADPH oxidase and other cellular stressors.

Another experiment concerns PKCα. Nature of the experiment: Phospho-PKCα (membrane-associated PKC signalling, cellular stress) in HMVECad cells. The class given is cell-based, human. The note with it: HMVECads exposed to modified RSA versus control unmodified RSA.
From the text: as §2
Next, the cells were pre-incubated with a polyclonal anti-SCARB1 antibody (a-SRB) or a polyclonal anti-CD36 antibody (a-CD36) or transfected with either SCARB1 siRNA (si-SRB) or CD36 siRNA (siCD36) before exposure to MDA-RSA or Pent-RSA as above. The pre-incubations were performed in various combinations. The labels beneath each set of bars indicate which pre-incubation and which exposure was made to that set. […] The dark bars are read using the left y-axis, and the white bars are read using the right y-axis.
as §4

In a further experiment the test system is AGT, ACE and AT1. Put plainly: Expression of AGT, ACE and AT1 in HMVECad cells by Western blotting. The note with it: HMVECads, 60 minutes, modified RSA versus control. The class given is cell-based, human.
From the text: as §2, §3
After incubating for 60 minutes, the intracellular ROS production was again determined for the cells of FIG. 20 by a fluorometric analysis. The expression levels of AGT, ACE and AT1 were examined by Western blotting.

Consider “copper-zinc superoxide dismutase [c-SOD]”, for which the “protein levels of RAS proteins (AGT, ACE, AT1) relative to β-actin” value in experiment [1] is “lower levels of these proteins”.

As to `COc1cc(C(C)=O)ccc1O` [apocynin], the “protein levels of RAS proteins (AGT, ACE, AT1) relative to β-actin” value in experiment [1] is “lower levels of these proteins”.

With `CC1(C)CC[C@]2(C(=O)O)CC[C@]3(C)[C@H](C(=O)C=C4[C@@]5(C)C=C(C#N)C(=O)C(C)(C)[C@@H]5CC[C@]43C)[C@@H]2C1` [bardoxolone], the nephroprotective effect entry in experiment [2] was “nephroprotective”.

`c1ccc2c(c1)[I+]c1ccccc1-2` [DPI, diphenyleneiodonium]: the “protein levels of RAS proteins (AGT, ACE, AT1) relative to β-actin” value in experiment [1] is listed as “lower levels of these proteins”.

On to `Cn1c2ccccc2c2c3c(c4c5ccccc5n(CCC#N)c4c21)CNC3=O` [Gö6976, 12-(2-Cyanoethyl)-6,7,12,13-tetrahydro-13-methyl-5-oxo-5H-indolo(2,3-a)pyrrolo(3,4-c)-carbazole], for which, in experiment [3], the “phosphorylation of p47phox” value is listed as “p47phox is phosphorylated through pan-PKC or PKCα”. Further, in experiment [4], the “intracellular ROS production” value is reported as “Further reduction”. Moreover, the “protein levels of RAS proteins (AGT, ACE, AT1) relative to β-actin” value in experiment [1] is recorded as “lower levels of these proteins”.

B1: MDA-RSA: rat serum albumin treated with an equimolar 1 mmol/L solution of malondialdehyde and acetaldehyde for 3 days at 37° C. (protein)
chain: EAHKSEIAHRFKDLGEQHFKGLVLIAFSQYLQKCPYEEHIKLVQEVTDFAKTCVADENAENCDKSIHTLFGDKLCAIPKLRDNYGELADCCAKQEPERNECFLQHKDDNPNLPPFQRPEAEAMCTSFQENPTSFLGHYLHEVARRHPYFYAPELLYYAEKYNEVLTQCCTESDKAACLTPKLDAVKEKALVAAVRQRMKCSSMQRFGERAFKAWAVARMSQRFPNAEFAEITKLATDVTKINKECCHGDLLECADDRAELAKYMCENQATISSKLQACCDKPVLQKSQCLAEIEHDNIPADLPSIAADFVEDKEVCKNYAEAKDVFLGTFLYEYSRRHPDYSVSLLLRLAKKYEATLEKCCAEGDPPACYGTVLAEFQPLVEEPKNLVKTNCELYEKLGEYGFQNAVLVRYTQKAPQVSTPTLVEAARNLGRVGTKCCTLPEAQRLPCVEDYLSAILNRLCVLHEKTPVSEKVTKCCSGSLVERRPCFSALTVDETYVPKEFKAETFTFHSDICTLPDKEKQIKKQTALAELVKHKPKATEDQLKTVMGDFAQFVDKCCKAADKDNCFATEGPNLVARSKEALA
Take B1: in experiment [5], the “intracellular ROS” value was “caused an increase in activity compared to the control” and the “intracellular ROS production” value was “greater ROS production”. In the experiment on PKCα, the “phospho-PKCα (cellular stress signalling)” value is reported as “caused an increase in activity compared to the control”. In the experiment with AGT, ACE and AT1, the “expression levels of AGT, ACE and AT1” value was “caused an increase in activity compared to the control”.

B2: Pent-RSA: prepared by incubating normal RSA with 0.1 M D-glucose in sodium phosphate at 37° C. for 14 days (protein)
chain: B1 chain
Regarding B2, in experiment [5], the “intracellular ROS” value was “caused an increase in activity compared to the control” and the “intracellular ROS production” value was “greater ROS production”. Moreover, the “phospho-PKCα (cellular stress signalling)” value in the experiment on PKCα was “caused an increase in activity compared to the control”. In addition, the “expression levels of AGT, ACE and AT1” value in the experiment on AGT, ACE and AT1 is reported as “caused an increase in activity compared to the control”.
